Molecular target: Link module from human TSG-6 (Link_TSG6) (human) (UniProt P98066)
Assay: AUC

## Link module from human TSG-6 (Link_TSG6) (from UniProt P98066 36-133) (domain or fragment)
  stoichiometry N: 2

From PMC5073374
